# B1: TPR t1 (parent)
# chain: GACCAAUCUGCCCUCAGAGCUCGAGAACAUCUUCGGAUGCAGAGGAGGCAGGCUUCGGUGGCGCGAUAGCGCCAACGUCCUCAACCUCCAAUGCAUCCCACCACAUGAUGAUGCCUGAAGAGCCUUGGUUUUUUG
# Variants of: B1
# Test: polymerase ribozyme fitness, log enrichment relative to wild type (log ratio); higher = more active; in vitro selection for triplet polymerase activity
# Summary of the method: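 Fitness measures genotype enrichment against wild-type enrichment on a logarithmic scale, with inverse-variance-weighted averaging of replicates. The logarithm is base 2, and genotypes were kept only with ≥10 input reads and ≥1 read per output in Illumina sequencing. The sequenced libraries came from one triplicate in vitro selection round, including frozen incubation at −7 °C, of PCR-built, transcribed mutant libraries of each subunit of a heterodimeric triplet polymerase ribozyme.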
row,Variant,polymerase ribozyme fitness (log ratio)
1,GACCAAUCUGCCCUCAGAGCUCGAGAACAUCUUCGGAUGCAGAGGAGGCAGGCUUCGGUGGCGCGAUAGCGCCAACGUCCUCAACCUCCAAUGCAUCCCACCAAAUGAUGAUGGCUGAAGAGCCUUCGUUUUUUG [C104A C114G G127C],-6.1
2,GACCAAUCUGCCCUCAGAGCUCGAGAACAUCUUCGGAUGCAGAGGAGGCAGGCUUCGGUGGCGCGAUAGCGCCAACGUCCUCAACCUCCAAUGCAUCCCACCUCAUGAUGAUACCAGAAGUGCCUUGGUUUUUUG [A103U G113A U116A A121U],-5.45
3,GACCAAUCUGCCCUCAGAGCUCGAGAACAUCUUCGGAUGCAGAGGAGGCAGGCUUCGGUGGCGCGAUAGCGCCAACGUCCUCAACCUCCAAUGCAUCCCACUACAUGAUUAUGCCUGAAGAGCCUUGGUUUUUUG [C102U G110U],-4.26
4,GACCAAUCUGCCCUCAGAGCUCGAGAACAUCUUCGGAUGCAGAGGAGGCAGGCUUCGGUGGCGCGAUAGCGCCAACGUCCUCAACCUCCAAUGCAUCCCACCCUAUGAUGAUGCCCGAAGAGCCUUGGUUUUUUG [A103C C104U U116C],-6.48
5,GACCAAUCUGCCCUCAGAGCUCGAGAACAUCUUCGGAUGCAGAGGAGGCAGGCUUCGGUGGCGCGAUAGCGCCAACGUCCUCAACCUCCAAUGCAUCCCACUACAUGAUGAUACCUGAAGAGCCUUGGAUUUUUG [C102U G113A U129A],-3.17
6,GACCAAUCUGCCCUCAGAGCUCGAGAACAUCUUCGGAUGCAGAGGAGGCAGGCUUCGGUGGCGCGAUAGCGCCAACGUCCUCAACCUCCAAUGCAUCCCACAACAUGAUGAUGCCUGGAGAGCCUUGGUUUUUUG [C102A A118G],-2.42
7,GACCAAUCUGCCCUCAGAGCUCGAGAACAUCUUCGGAUGCAGAGGAGGCAGGCUUCGGUGGCGCGAUAGCGCCAACGUCCUCAACCUCCAAUGCAUCCCACCAAAUGAUGAUGCCUGAAGAGUCUUGGUUUUUUG [C104A C123U],-0.0302
8,GACCAAUCUGCCCUCAGAGCUCGAGAACAUCUUCGGAUGCAGAGGAGGCAGGCUUCGGUGGCGCGAUAGCGCCAACGUCCUCAACCUCCAAUGCAUCCCACAACAUGAUGAUCCCUGAAGAGCCUCGGUUUUUUG [C102A G113C U126C],-4.92
9,GACCAAUCUGCCCUCAGAGCUCGAGAACAUCUUCGGAUGCAGAGGAGGCAGGCUUCGGUGGCGCGAUAGCGCCAACGUCCUCAACCUCCAAUGCAUCCCACUACAUGAUGAUGCCUGAAGAGCUUUGGUUUUUUG [C102U C124U],-0.914
10,GACCAAUCUGCCCUCAGAGCUCGAGAACAUCUUCGGAUGCAGAGGAGGCAGGCUUCGGUGGCGCGAUAGCGCCAACGUCCUCAACCUCCAAUGCAUCCCACUACAUGAUGAUGCCUGAAUAGCCUUGGUUUUUUG [C102U G120U],-0.992
11,GACCAAUCUGCCCUCAGAGCUCGAGAACAUCUUCGGAUGCAGAGGAGGCAGGCUUCGGUGGCGCGAUAGCGCCAACGUCCUCAACCUCCAAUGCAUCCCACAACAUGAGGAUGCCUGAAGAGCCUUGGUUUUUUG [C102A U109G],-2.56
12,GACCAAUCUGCCCUCAGAGCUCGAGAACAUCUUCGGAUGCAGAGGAGGCAGGCUUCGGUGGCGCGAUAGCGCCAACGUCCUCAACCUCCAAUGCAUCCCAUCACAUGAUGAUGCCUGAAGAGCCUUGGGCUUUUG [C101U U129G U130C],0.135
13,GACCAAUCUGCCCUCAGAGCUCGAGAACAUCUUCGGAUGCAGAGGAGGCAGGCUUCGGUGGCGCGAUAGCGCCAACGUCCUCAACCUCCAAUGCAUCCCACCGCAUGAUAAUGCCUGAAGAGCCUUGGUUUUUUG [A103G G110A],-5.82
14,GACCAAUCUGCCCUCAGAGCUCGAGAACAUCUUCGGAUGCAGAGGAGGCAGGCUUCGGUGGCGCGAUAGCGCCAACGUCCUCAACCUCCAAUGCAUCCCACCGCAUGAUUAUGCCUGAAGAGCCUUGGUUUUUUG [A103G G110U],-3.83
15,GACCAAUCUGCCCUCAGAGCUCGAGAACAUCUUCGGAUGCAGAGGAGGCAGGCUUCGGUGGCGCGAUAGCGCCAACGUCCUCAACCUCCAAUGCAUCCCACGACAUGAUGCUGCCUGCAGAGCCUUGGCUUUUUG [C102G A111C A118C U129C],-5.54
16,GACCAAUCUGCCCUCAGAGCUCGAGAACAUCUUCGGAUGCAGAGGAGGCAGGCUUCGGUGGCGCGAUAGCGCCAACGUCCUCAACCUCCAAUGCAUCCCACCAAAUGAUAAUGCCUGAAGAGCCUUGGUUUUUUG [C104A G110A],-3.18
17,GACCAAUCUGCCCUCAGAGCUCGAGAACAUCUUCGGAUGCAGAGGAGGCAGGCUUCGGUGGCGCGAUAGCGCCAACGUCCUCAACCUCCAAUGCAUCCCACCAAAUGAUGUUGCCUGAAGAGCCUUGGUUUUUUG [C104A A111U],-3.1
18,GACCAAUCUGCCCUCAGAGCUCGAGAACAUCUUCGGAUGCAGAGGAGGCAGGCUUCGGUGGCGCGAUAGCGCCAACGUCCUCAACCUCCAAUGCAUCCCACCUCAUGAUGAUGCCUGAUGAGCCUUGGUUUUUUG [A103U A119U],-5.64
19,GACCAAUCUGCCCUCAGAGCUCGAGAACAUCUUCGGAUGCAGAGGAGGCAGGCUUCGGUGGCGCGAUAGCGCCAACGUCCUCAACCUCCAAUGCAUCCCACCUCAUGAUGAUGCCUGAAGAGCGUUGGUUUUUUG [A103U C124G],-3.17
20,GACCAAUCUGCCCUCAGAGCUCGAGAACAUCUUCGGAUGCAGAGGAGGCAGGCUUCGGUGGCGCGAUAGCGCCAACGUCCUCAACCUCCAAUGCAUCCCAUCACAUGAUGAUGCCUGAAGAGCCUUGGAUUUUUG [C101U U129A],-1.62
21,GACCAAUCUGCCCUCAGAGCUCGAGAACAUCUUCGGAUGCAGAGGAGGCAGGCUUCGGUGGCGCGAUAGCGCCAACGUCCUCAACCUCCAAUGCAUCCCACUACAUGAUGAUGGCUGAAGAGCGUUGGUUUUUUG [C102U C114G C124G],-2.64

row,Variant,polymerase ribozyme fitness (log ratio)
1,GACCAAUCUGCCCUCAGAGCUCGAGAACAUCUUCGGAUGCAGAGGAGGCAGGCUUCGGUGGCGCGAUAGCGCCAACGUCCUCAACCUCCAAUGCAUCCCACCGCAUGAUGAUGUCUGAAGAGCCUUGGUUUUUUG [A103G C114U],-3
2,GACCAAUCUGCCCUCAGAGCUCGAGAACAUCUUCGGAUGCAGAGGAGGCAGGCUUCGGUGGCGCGAUAGCGCCAACGUCCUCAACCUCCAAUGCAUCCCACUACAUGAUGAUGCCUUAAGAGCCUUGGUUUUUUG [C102U G117U],-4.91
3,GACCAAUCUGCCCUCAGAGCUCGAGAACAUCUUCGGAUGCAGAGGAGGCAGGCUUCGGUGGCGCGAUAGCGCCAACGUCCUCAACCUCCAAUGCAUCCCACUACAUGAUGUUGCCUGAAGAGCCUUGGCUUUUUG [C102U A111U U129C],-6.46
4,GACCAAUCUGCCCUCAGAGCUCGAGAACAUCUUCGGAUGCAGAGGAGGCAGGCUUCGGUGGCGCGAUAGCGCCAACGUCCUCAACCUCCAAUGCAUCCCACGACAUGAUGAAGCCUGAAGAGCCUUUGUUUUUUG [C102G U112A G127U],-4.33
5,GACCAAUCUGCCCUCAGAGCUCGAGAACAUCUUCGGAUGCAGAGGAGGCAGGCUUCGGUGGCGCGAUAGCGCCAACGUCCUCAACCUCCAAUGCAUCCCACCCCAUGAUGAUGCCUGAAGAGGCUUGGUUUUUUG [A103C C123G],-2.94
6,GACCAAUCUGCCCUCAGAGCUCGAGAACAUCUUCGGAUGCAGAGGAGGCAGGCUUCGGUGGCGCGAUAGCGCCAACGUCCUCAACCUCCAAUGCAUCCCACCAAAUGAUGAUGUCUGAAGAGCCUUAGUUAUUUG [C104A C114U G127A U131A],-6.47
7,GACCAAUCUGCCCUCAGAGCUCGAGAACAUCUUCGGAUGCAGAGGAGGCAGGCUUCGGUGGCGCGAUAGCGCCAACGUCCUCAACCUCCAAUGCAUCCCACAACAUGAUGAUGCCUCAAGAGCCUUGGUUUUUUG [C102A G117C],-6.66
8,GACCAAUCUGCCCUCAGAGCUCGAGAACAUCUUCGGAUGCAGAGGAGGCAGGCUUCGGUGGCGCGAUAGCGCCAACGUCCUCAACCUCCAAUGCAUCCCACCGCAUGAUGAUGCCUAAAGAGCCUUGGUUUUUUG [A103G G117A],-4.42
9,GACCAAUCUGCCCUCAGAGCUCGAGAACAUCUUCGGAUGCAGAGGAGGCAGGCUUCGGUGGCGCGAUAGCGCCAACGUCCUCAACCUCCAAUGCAUCCCACCGCAUGAUGAUACCUGAAGAGCCUUGGUUUUUUG [A103G G113A],-4.15
10,GACCAAUCUGCCCUCAGAGCUCGAGAACAUCUUCGGAUGCAGAGGAGGCAGGCUUCGGUGGCGCGAUAGCGCCAACGUCCUCAACCUCCAAUGCAUCCCACCGCAUGAUGAUGCCUGGAGAGCCUUGGUUUUUUG [A103G A118G],-4.56
11,GACCAAUCUGCCCUCAGAGCUCGAGAACAUCUUCGGAUGCAGAGGAGGCAGGCUUCGGUGGCGCGAUAGCGCCAACGUCCUCAACCUCCAAUGCAUCCCACAACAUGAUGAUGCCUGAAGAGCCUUGAUUUUUUG [C102A G128A],-4.69
12,GACCAAUCUGCCCUCAGAGCUCGAGAACAUCUUCGGAUGCAGAGGAGGCAGGCUUCGGUGGCGCGAUAGCGCCAACGUCCUCAACCUCCAAUGCAUCCCACCAAAUGAUGAUGCAUGAAGAGCCUUGGUUUUUUG [C104A C115A],-0.858
13,GACCAAUCUGCCCUCAGAGCUCGAGAACAUCUUCGGAUGCAGAGGAGGCAGGCUUCGGUGGCGCGAUAGCGCCAACGUCCUCAACCUCCAAUGCAUCCCACGACAUGAUGAAGCCUGAAGAGUCUUAGUUUUUUG [C102G U112A C123U G127A],-5.25
14,GACCAAUCUGCCCUCAGAGCUCGAGAACAUCUUCGGAUGCAGAGGAGGCAGGCUUCGGUGGCGCGAUAGCGCCAACGUCCUCAACCUCCAAUGCAUCCCACAACAUGAUGAUGCCUGAAGAGCCUUAGUUUUUUG [C102A G127A],-3.45
15,GACCAAUCUGCCCUCAGAGCUCGAGAACAUCUUCGGAUGCAGAGGAGGCAGGCUUCGGUGGCGCGAUAGCGCCAACGUCCUCAACCUCCAAUGCAUCCCACUACAUGAUGAUGCCUGGAGAGCCUUGGUUUUUUG [C102U A118G],-1.73
16,GACCAAUCUGCCCUCAGAGCUCGAGAACAUCUUCGGAUGCAGAGGAGGCAGGCUUCGGUGGCGCGAUAGCGCCAACGUCCUCAACCUCCAAUGCAUCCCACAACAUGAUGCUGCCUGAACAGCCUUGGUUUUUUG [C102A A111C G120C],-3.12
17,GACCAAUCUGCCCUCAGAGCUCGAGAACAUCUUCGGAUGCAGAGGAGGCAGGCUUCGGUGGCGCGAUAGCGCCAACGUCCUCAACCUCCAAUGCAUCCCACUACAUGAUGAUGCCUGAAGAGCCUUGGUCUUUUG [C102U U130C],-1.87
18,GACCAAUCUGCCCUCAGAGCUCGAGAACAUCUUCGGAUGCAGAGGAGGCAGGCUUCGGUGGCGCGAUAGCGCCAACGUCCUCAACCUCCAAUGCAUCCCACCCCAUGAUGAUGCCUGAAGAGCCUUGGUUUUGUG [A103C U133G],-4.45
19,GACCAAUCUGCCCUCAGAGCUCGAGAACAUCUUCGGAUGCAGAGGAGGCAGGCUUCGGUGGCGCGAUAGCGCCAACGUCCUCAACCUCCAAUGCAUCCCACUAAAUGAUGAUGCCUGAAGAGCCUUGGUCUUUUG [C102U C104A U130C],-0.457
20,GACCAAUCUGCCCUCAGAGCUCGAGAACAUCUUCGGAUGCAGAGGAGGCAGGCUUCGGUGGCGCGAUAGCGCCAACGUCCUCAACCUCCAAUGCAUCCCACAACAUGAUGAUGCCUGAAGAGCUUUGGUUUUUUG [C102A C124U],0.448
21,GACCAAUCUGCCCUCAGAGCUCGAGAACAUCUUCGGAUGCAGAGGAGGCAGGCUUCGGUGGCGCGAUAGCGCCAACGUCCUCAACCUCCAAUGCAUCCCACUACAUGAUGAUGCCUGAAGAUCCUUGGUUUUUUG [C102U G122U],-1.26
